The record followed here is article PMC4969796 (The Journal of General Physiology, 2016).

The data set concerns the molecule itself. In words: SDS-PAGE.

B1: L24C/R117C KcsA (before chymotrypsin) (natural protein)
chain: MPPMLSGLLARLVKLLLGRHGSACHWRAAGAATVLLVIVLLAGSYLAVLAERGAPGAQLITYPRALWWSVETATTVGYGDLYPVTLWGRLVAVVVMVAGITSFGLVTAALATWFVGCEQERRGHFVRHSEKAAEEAYTRTTRALHERFDRLERMLDDNRR
Consider B1, for which the stoichiometry N – broadly, a count of units in the complex or per binding partner – worked out at 4.
